# Data: PMC13385800 (2026)
# B1: TBLR1-LgBiT wild type [not stated] / SETD5-SmBiT [not stated] (parent complex)
# chain 1: MSISSDEVNFLVYRYLQESGFSHSAFTFGIESHISQSNINGALVPPAALISIIQKGLQYVEAEVSINEDGTLFDGRPIESLSLIDAVMPDVVQTRQQAYRDKLAQQQAAAAAAAAAAASQQGSAKNGENTANGEENGAHTIANNHTDMMEVDGDVEIPPNKAVVLRGHESEVFICAWNPVSDLLASGSGDSTARIWNLSENSTSGSTQLVLRHCIREGGQDVPSNKDVTSLDWNSEGTLLATGSYDGFARIWTKDGNLASTLGQHKGPIFALKWNKKGNFILSAGVDKTTIIWDAHTGEAKQQFPFHSAPALDVDWQSNNTFASCSTDMCIHVCKLGQDRPIKTFQGHTNEVNAIKWDPTGNLLASCSDDMTLKIWSMKQDNCVHDLQAHNKEIYTIKWSPTGPGTNNPNANLMLASASFDSTVRLWDVDRGICIHTLTKHQEPVYSVAFSPDGRYLASGSFDKCVHIWNTQTGALVHSYRGTGGIFEVCWNAAGDKVGASASDGSVCVLDLRK
# chain 2: MSIAIPLGVTTSDTSYSDMAAGSDPESVEASPAVNEKSVYSTHNYGTTQRHGCRGLPYATIIPRSDLNGLPSPVEERCGDSPNSEGETVPTWCPCGLSQDGFLLNCDKCRGMSRGKVIRLHRRKQDNISGGDSSATESWDEELSPSTVLYTATQHTPTSITLTVRRTKPKKRKKSPEKGRAAPKTKKIKNSPSEAQNLDENTTEGWENRIRLWTDQYEEAFTNQYSADVQNALEQHLHSSKEFVGKPTILDTINKTELACNNTVIGSQMQLQLGRVTRVQKHRKILRAARDLALDTLIIEYRGKVMLRQQFEVNGHFFKKPYPFVLFYSKFNGVEMCVDARTFGNDARFIRRSCTPNAEVRHMIADGMIHLCIYAVSAITKDAEVTIAFDYEYSNCNYKVDCACHKGNRNCPIQKRNPNATELPLLPPPPSLPTIGAETRRRKARRKELEMEQQNEASEENNDQQSQEVPEKVTVSSDHEEVDNPEEKPEEEKEEVIDDQENLAHSRRTREDRKVEAIMHAFENLEKRKKRRDQPLEQSNSDVEITTTTSETPVGEETKTEAPESEVSNSVSNVTIPSTPQSVGVNTRRSSQAGDIAAEKLVPKPPPAKPSRPRPKSRISRYRTSSAQRLKRQKQANAQQAELSQAALEEGGSNSLVTPTEAGSLDSSGENRPLTGSDPTVVSITGSHVNRAASKYPKTKKYLVTEWLNDKAEKQECPVECPLRITTDPTVLATTLNMLPGLIHSPLICTTPKHYIRFGSPFIPERRRRPLLPDGTFSSCKKRWIKQALEEGMTQTSSVPQETRTQHLYQSNENSSSSSICKDNADLLSPLKKWKSRYLMEQNVTKLLRPLSPVTPPPPNSGSKSPQLATPGSSHPGEEECRNGYSLMFSPVTSLTTASRCNTPLQFELCHRKDLDLAKVGYLDSNTNSCADRPSLLNSGHSDLAPHPSLGPTSETGFPSRSGDGHQTLVRNSDQAFRTEFNLMYAYSPLNAMPRADGLYRGSPLVGDRKPLHLDGGYCSPAEGFSSRYEHGLMKDLSRGSLSPGGERACEGVPSAPQNPPQRKKVSLLEYRKRKQEAKENSAGGGGDSAQSKSKSAGAGQGSSNSVSDTGAHGVQGSSARTPSSPHKKFSPSHSSMSHLEAVSPSDSRGTSSSHCRPQENISSRWMVPTSVERLREGGSIPKVLRSSVRVAQKGEPSPTWESNITEKDSDPADGEGPETLSSALSKGATVYSPSRYSYQLLQCDSPRTESQSLLQQSSSPFRGHPTQSPGYSYRTTALRPGNPPSHGSSESSLSSTSYSSPAHPVSTDSLAPFTGTPGYFSSQPHSGNSTGSNLPRRSCPSSAASPTLQGPSDSPTSDSVSQSSTGTLSSTSFPQNSRSSLPSDLRTISLPSAGQSAVYQASRVSAVSNSQHYPHRGSGGVHQYRLQPLQGSGVKTQTGLS
# Variants of: B1
# Experiment: NanoLuc complementation assay; n = 6–7 independent transfections per TBLR1 mutant; read off a plot
row,ratio to parent,Variant
1,~0.7,chain 1 MSISSDEVNFLVYRYLQESGFSHSAFTFGIESHISQSNINGALVPPAALISIIQKGLQYVEAEVSINEDGTLFDGRPIESLSLIDAVMPDVVQTRQQAYRDKLAQQQAAAAAAAAAAASQQGSAKNGENTANGEENGAHTIANNHTDMMEVDGDVEIPPNKAVVLRGHESEVFICAWNPVSDLLASGSGDSTARIWNLSENSTSGSTQLVLRHCIREGGQDVPSNKDVTSLDWNSEGTLLATGSYDGFARIWTKDGNLASTLGQHKGPIFALKWNKKGNFILSAGVDKTTIIWDAHTGEAKQQFPFHSAPALDVDWQSNNTFASCSTDMCIHVCKLGQDRPIKTFQGHTNEVNAIKWDPTGNLLASCSDDMTLKIWSMKQDNCVHDLQAHNKEIYTIKWSPTGPGTNNPNANLMLASASFDSTVRLWDVDRGICIHTLTKHQERVYSVAFSPDGRYLASGSFDKCVHIWNTQTGALVHSYRGTGGIFEVCWNAAGDKVGASASDGSVCVLDLRK [chain 1 P444R]
2,~0.06,chain 1 MSISSDEVNFLVYRYLQESGFSHSAFTFGIESHISQSNINGALVPPAALISIIQKGLQYVEAEVSINEDGTLFDGRPIESLSLIDAVMPDVVQTRQQAYRDKLAQQQAAAAAAAAAAASQQGSAKNGENTANGEENGAHTIANNHTDMMEVDGDVEIPPNKAVVLRGHESEVFICAWNPVSDLLASGSGDSTARIWNLSENSTSGSTQLVLRHCIREGGQDVPSNKDVTSLDWNSEGTLLATGSYDGFARIWTKDGNLASTLGQHKGPIFALKWNKKGNFILSAGVDKTTIIWDAHTGEAKQQFPFHSAPALDVDWQSNNTFASCSTDMCIHVCKLGQDRPIKTFQGHTNEVNAIKWDPTGNLLASCSDDMTLKIWSMKQDNCVHDLQAHNKEIYTIKWSPTGPGTNNPNANLMLARASFDSTVRLWDVDRGICIHTLTKHQEPVYSVAFSPDGRYLASGSFDKCVHIWNTQTGALVHSYRGTGGIFEVCWNAAGDKVGASASDGSVCVLDLRK [chain 1 S417R]
3,~0.07,chain 1 MSISSDEVNFLVYRYLQESGFSHSAFTFGIESHISQSNINGALVPPAALISIIQKGLQYVEAEVSINEDGTLFDGRPIESLSLIDAVMPDVVQTRQQAYRDKLAQQQAAAAAAAAAAASQQGSAKNGENTANGEENGAHTIANNHTDMMEVDGDVEIPPNKAVVLRGHESEVFICAWNPVSDLLASGSGDSTARIWNLSENSTSGSTQLVLRHCIREGGQDVPSNKDVTSLDWNSEGTLLATGSYDGFARIWTKDGNLASTLGQHKGPIFALKWNKKGNFILSAGVDKTTIIWDAHTGEAKQQFPFHSAPALDVDWQSNNTFASCSTDMCIHVCKLGQDRPIKTFQGHTNEVNAIKWDPTGNLLASCSDDMTLKIWSMKQDNCVHDLQAHNKEIYTIKWSPTGPGTNNPNANLMLASASFDSTVRLWDVDRGICIHTLTKHQEPVYSVAFSPDGRYLASDSFDKCVHIWNTQTGALVHSYRGTGGIFEVCWNAAGDKVGASASDGSVCVLDLRK [chain 1 G460D]

# Further lines, the variant ahead of its results:
row,Variant,ratio to parent
1,chain 1 MSISSDEVNFLVYRYLQESGFSHSAFTFGIESHISQSNINGALVPPAALISIIQKGLQYVEAEVSINEDGTLFDGRPIESLSLIDAVMPDVVQTRQQAYRDKLAQQQAAAAAAAAAAASQQGSAKNGENTANGEENGAHTIANNHTDMMEVDGDVEIPPNKAVVLRGHESEVFICAWNPVSDLLASGSGDSTARIWNLSENSTSGSTQLVLRHCIREGGQDVPSNKDVTSLDWNSEGTLLATGSYDGFARIWTKDGNLASTLGQHKGPILALKWNKKGNFILSAGVDKTTIIWDAHTGEAKQQFPFHSAPALDVDWQSNNTFASCSTDMCIHVCKLGQDRPIKTFQGHTNEVNAIKWDPTGNLLASCSDDMTLKIWSMKQDNCVHDLQAHNKEIYTIKWSPTGPGTNNPNANLMLASASFDSTVRLWDVDRGICIHTLTKHQEPVYSVAFSPDGRYLASGSFDKCVHIWNTQTGALVHSYRGTGGIFEVCWNAAGDKVGASASDGSVCVLDLRK [chain 1 F270L],~1.8
2,chain 1 MSISSDEVNFLVYRYLQESGFSHSAFTFGIESHISQSNINGALVPPAALISIIQKGLQYVEAEVSINEDGTLFDGRPIESLSLIDAVMPDVVQTRQQAYRDKLAQQQAAAAAAAAAAASQQGSAKNGENTANGEENGAHTIANNHTDMMEVDGDVEIPPNKAVVLRGHESEVFICAWNPVSDLLASGSGDSTARIWNLSENSTSGSTQLVLRHCIREGGQDVPSNKDVTSLDWNSEGTLLATGSYDGFARIWTKDGNLASTLGQHKGPIFALKWNKKGNFILSAGVDKTTIIWDAHTGEAKQQFPFHSAPALDVDWQSNNTFASCSTHMCIHVCKLGQDRPIKTFQGHTNEVNAIKWDPTGNLLASCSDDMTLKIWSMKQDNCVHDLQAHNKEIYTIKWSPTGPGTNNPNANLMLASASFDSTVRLWDVDRGICIHTLTKHQEPVYSVAFSPDGRYLASGSFDKCVHIWNTQTGALVHSYRGTGGIFEVCWNAAGDKVGASASDGSVCVLDLRK [chain 1 D328H],~0.55
